{"source": "the DeepSol protein solubility set", "data": [{"assay": "soluble on expression in E. coli; label from the status in PepcDB or PDB records", "values": [{"sequence": "MEMEKEFEQIDKSGSWAAIYQDIRHEASDFPCRVAKLPKNKNRNRYRDVSPFDHSRIKLHQEDNDYINASLIKMEEAQRSYILTQGPLPNTCGHFWEMVWEQKSRGVVMLNRVMEKGSLKCAQYWPQKEEKEMIFEDTNLKLTLISEDIKSYYTVRQLELENLTTQETREILHFHYTTWPDFGVPESPASFLNFLFKVRESGSLSPEHGPVVVHCSAGIGRSGTFCLADTCLLLMDKRKDPSSVDIKKVLLDMRKFRMGLIATAEQLRFSYLAVIEGAKFIMGDSSVQDQWKELSHEDLEPPPEHIPPPPRPPKRILEPHNGKCREFFPN", "soluble on expression in E. coli": "soluble"}, {"sequence": "MGSDKIHHHHHHMLHKNDYRLGIDVGGTNTDAAILDADLRCIATAKFPTSMDIYSGIERVIAAVLAQSGIEPQHICYAMLGTTQCTNAIVERKGLDRVGLLRLSLPSSDSVPPLFGWDDEWQKTLGEHFYQLHGGYEFDGREIHPVLLNEVLAVCDTMRGHVDSVAICGVFSPVNNDQELQVAQWVNAALPDVSLSLSHRIGSTGLLERENATILNASLQSTANRFVNGFIQALVRHGIKATPFFGQNDGTLMSESMVKQYPILTMACGPTNSIRGACHLSGLDNALIIDVGGTTTDIGVLVNGFPRESAIAVEVGDVRTNFRMPDIISIGIGGGTCVRQSQNGTLTLGPDSVGYRLLEQSVSFGGETLTLNDIMLQLQRERWTSSLSHSLPELDKALCLEAYRQMIDKVESAIDRIKSSSAAIPAVLVGGGSILLPDVLSGVSQVMRPQNFDAANAVGVALGKVGAQIERVVKMSDNDREKIKSELQQQTICLAEETGAMPGSVEIIDYQEIPLAYLPGNAVQVKIKAAGNLA", "soluble on expression in E. coli": "not soluble"}, {"sequence": "MTIIINMRSGVDEVKLRIAAKLIREGKLVAFPTETVYGLGADALNERAVRRIFEAKGRPADNPLILHIAKFSQVYELAREVPEEAKVLVERFWPGPLTIVLPRKDVVPDVTTGGLDTVAIRMPANEIALKLIELSGKPIAAPSANISGKPSPTSAEHVADDFYGKIECIIDGGETRIGVESTVIDLTEHPPVLLRPGGLPLEEIEKVIGKVRIHPAVFGKKVDTPKSPGMKYKHYAPNAEVIVVEGPREKVKGKITELVKELKERGKKVGVIGSESYNADEFFFLGSSVEEVAKNLFKALRYMDKAGVDVVIAEGVEERGLGLAVMNRLRKASGYKIVKA", "soluble on expression in E. coli": "soluble"}, {"sequence": "MAKKKTKFTCQECGYQSPKYMGKCPGCGQWNSLVEEMEPVVSSRRLNYANAIQTEVTKPRRLTEVETKSEARIETKFQEFNRVLGGGIVDGSLVLIGGDPGIGKSTLLLQISSQLADASYDVLYISGEESAKQIKLRADRLHVNGSNLFVVSETDLQRIAAHIEEMNPAFVVIDSIQTIHLPEVTSAPGSVAQVRECTAELMKLAKTKGIPIFIVGHVTKEGAIAGPRMLEHMVDAVLYFEGDRHHTYRILRAVKNRFGSTNEMGIFEMKELGLAEVLNPSEIFLEERPVGVAGSTVVASMEGTRPVLVEIQALISPTSFGNPRRMATGIDHNRVSLIMAVLEKRTGLLLQNQDAYLKVAGGLKLDEPAIDLAVALSIASSFRDKSTAPTDAVIGEVGLTGEIRRVSRIEQRVQEAAKLGFQRAIIPRKNLGGWTIPEGIEVVGVSNLGEALRLTLGG", "soluble on expression in E. coli": "not soluble"}, {"sequence": "MGSDKIHHHHHHMFQDKYVFAQLASFLNRSKFNRIVTKYDGDKYVKHFTCWNQLLALMFGQLSNRESLRDLIVALEAHHSKCYHLGMGKNVSKSSLARANQDRDYHIFEEYAYYLVSEARQKCANHIFKLGGNVYAFDSTTIDLCLSVFWWAKFRKKKGGIKVHTLYDVETQIPAFFHITEASVHDSKVMIEIPYEPSSYYIFDRGYNNFKMLYKIHQIEAYFVVRAKKNLQYKSIQWKRRLPKNVLSDASVLLTGFYPKQYYPKPLRLVKYWDEEQEREFTFITNAMHISALQVAELYKNRWQVELFFKWLKQHLKIKRFWGTTENAVRIQIYAAICAYCLVAIIQHDMQLDRSTYEVLQILSISLTDKTHLRDLFDKTKFQNDKERFGPNGPSLFNF", "soluble on expression in E. coli": "not soluble"}, {"sequence": "MIPEEIYKILRKQRYQIDGHTAVKLCGWVRKKMLEDKNCYKSKFYGIETHRCIQCTPSVIWCQQNCIFCWRVLPRDIGIDISQIKEPKWEEPEVVYEKILAMHKRIIMGYAGVLDRVGEKKFKEALEPKHVAISLSGEPTLYPYLDELIKIFHKNGFTTFVVSNGILTDVIEKIEPTQLYISLDAYDLDSYRRICGGKKEYWESILNTLDILKEKKRTCIRTTLIRGYNDDILKFVELYERADVHFIELKSYMHVGYSQKRLKKEDMLQHDEILKLAKMLDENSSYKLIDDSEDSRVALLQNENRKINPKL", "soluble on expression in E. coli": "soluble"}, {"sequence": "GKVGDRPIEQQLALGYIKALTEHDYQTLSKYYNRDSVFYDKTADTKYIGTRSIIAFLQRSHEGVLEFDFNIEHMFNTGPLVVMIGNYHLRGPGEQFGKPGKIIDIAIPGVTTLKFDPNTQRLTEQVDLMDYQTMSDQLQSQ", "soluble on expression in E. coli": "soluble"}, {"sequence": "GSERVNYKPGMRVLTKMSGFPWWPSMVVTESKMTSVARKSKPKRAGTFYPVIFFPNKEYLWTGSDSLTPLTSEAISQFLEKPKPKTASLIKAYKMAQSTPDLDSLSVPS", "soluble on expression in E. coli": "soluble"}, {"sequence": "GPGSMTAAVDLEGVALHGHMKGVTMLKFNRDGDLLFSSAKDTNCSACCWQVKTGKLFGSYTTVGQVEGRTYDAAMVALDVNRESTLLATASAGEEVLLWSVESGALLGSVSRSLSSGASVGFSHDDTLMMVATKGRSSTNSAIQVYNVPFTVPKAGEDIAPVKTPFTTFSTFETPDTITWAAWGPTNETIYYSEGGYMNILDVEANKVIRSRQIHEDENEVINRFSWDPNYLALATASTDKTSHLIDFRDLATIQVYRSDVPVNDVSISPNADHVILGGGMDAASVTTQGGQSIFEVKFFHKVHGHQLGQLRCHFGTINAMSFHPDGRGFASASYDGLIKMYRFGDSYDSTPGAQPLWTL", "soluble on expression in E. coli": "not soluble"}, {"sequence": "MAHHHHHHMNREQIARRIDLVGPSTGAIVGVATWCALHGAEADAILNYVAEKMKHKDTTDAQRASLVYVIHELLLSCATRGVSENAKRSILKAVSLTLPSAVRDTLRQRASDHTAFLIALQKATEWWGTLNLFPAAWLAKLQCTVQDGQESAGHRTTVPSALMQVANLLQRYQHAKEQWVQNRNIKAEEGRTGSGVASGQDTAAPLAGGGAGASSAVVDDAARRCLIALRKAVESRFERNAAFLAWCEAERAELEGRATTSSADSGVVKMAHGTSPHVPTHSGSGSSYSVKEEGGHSGGPSGEPNDDEDVLGSFFS", "soluble on expression in E. coli": "soluble"}, {"sequence": "MGSDKIHHHHHHMIVGIDVGGTNTDVAVLEGNVFQIKSFRTSEVIQNLSDFIEKNFGDAEAVGIGVAVWFVDGKPVKAPNLPAIPKMELDVPFIVDNDANCFAYFAAKTLNFRHLLAVTVGTGIGGGIVADGKIYRGRGAAGEIGHTFVGGRKRCRCGGEGHLEAYFGGWAMENVKELIDTGEIYSTAEFALFCRSLANAVMLLNPEAIALGGRIGGRLDERPLAEKVNRYLPEEIDVVVRVVKDDYAVAKGAALLALDTISQNLP", "soluble on expression in E. coli": "not soluble"}, {"sequence": "MGSSHHHHHHSQDPDPMQSFADAKEFFQYSAGQWQSRRVTHHLPFRRAESGGSNIQVETLEKDDPRIIEICQMHDMDASLSVGGSYVTWAGTMQWDKDDENHEGSTVFALIPDADNPRQGKLLRERGYAEIVPVAGEYHLDHEDGLVLTTEYETMTIYERFWFANPDLRLRTSTVKRFGGFNTTTFCMEERIQTSPVTATAAAETNPLYAISGW", "soluble on expression in E. coli": "soluble"}, {"sequence": "DERGEVVDGDKLIGALAMHLKNSHTLEKPLAVATVMSNLALEEFLAKAKIKLLRAGVGDKYVLEMMQKEGANFGGEQSGHLIFSDFAKTGDGLVSALQTMAFVLRSGERASRALNIFDLY", "soluble on expression in E. coli": "not soluble"}, {"sequence": "MDLHELTARLHAIRDRNDWRQFHSPKNLAMAASVEMAELVEIFQWLTEDQSRTLSAEQLEHAGQEVGDIVLYLLLFCGETGLDLEQVVRAKLADCERRFLP", "soluble on expression in E. coli": "soluble"}, {"sequence": "MGSDKIHHHHHHYEKIYDVNHVCYYTLTSVELQKFVKTAEIITPLNADNKTTITKDTILVGNPEENPLTKKYIGFFKIKINKTFPGKNKGIIEKQIINGHTVILLAGSDIQGTYASIITFANLNDIPENPIICETSNKVNIYSTSLNSEYFRDFIEKNILTPKEIEKVKSLSYKLKGKDKKATIENIAKWVANNIKYDYDKCKKIESGKFSWDEYNTPSETVKTKKGVCLDYATLTSALLLNDNIIPYMLDVALYNTSSLKISSYHASVAVKIDNTYFVIDQQPYLIPINEYTAQTFEDNLRIASIVMFRVVKERDGIKLIKEKEVPGIAIYGDLINLLEMRFNN", "soluble on expression in E. coli": "not soluble"}, {"sequence": "MAHHHHHHMAVENMLGKLKQNPGDYYNSVSALFFHRPYNMMPIQAMSFLYVRGLARATSAEHKKYFEELCSKAKVEPAAVQTELDVIPDYFGMIESGQEPKDVFGATNKVAKAVRADKDFSSLLSRKMSLGSSAMANFGNLYTASLPCWIAAGLEEAYNKKQDITNHPMVMVGYGSGDASEAIPIVPVKGWEEAASKINVAAALEKPVNLTREQYEGMHNGSLKSDLAAGNRQKEFVVAHIGSRNDMAFQDIGIEYYQFVH", "soluble on expression in E. coli": "not soluble"}, {"sequence": "MSITHQPANLTLAQIQQMIGGVMLLSQHSPLHRRYVVAEWLQRILPAFELNQFCYYEDEHGRPIAFCNWAFVSEQIRDELLSGVREISPSDWRSGQQIYIPEMIAPFGHGREVVNDLRRRVFLPWQGQKVCTVRGKVDAQNDRCIRKVQWFSI", "soluble on expression in E. coli": "not soluble"}, {"sequence": "MESTIEGEDENYVKVYITDNLDSEHELTIDKNSGDIPYHQCDAYADDANRRTSEENEYNNQARRYAKYYVFAQRGYDTVEHIENPAYVDAVRRAIADLSPAEFKRYFGALYRQLRSHHDDTERPRELPSGVRKPDAVVYEPEIYLGLEAVGEDVAERAQALATAHGFDLEESAEVQPVSELSDETLSRWKAFGDDLAAIVTREDLTTNLTITGVSGLHIGYPNRLGKHEVDEADSPFTHQADARLSLLPYAPESFDEFPAYLDHHLRCQVRDCFLKMGVVPPEEFHVVGFGKFRDSRRYDHFEMYPEVHKRDGNHTPLLG", "soluble on expression in E. coli": "not soluble"}, {"sequence": "MSLPEYDPDKYRGIDVSYVNICMRRAWLSLHEIFYVRDSYYVSDGAYLADINRKGLPISTGRSRMDNVQIHKDFIMVHEYKRGYKMIKADKMQILHYMYIIKLKENLDIKGKLHFLGSKKVVDIELNDENLNELYKSYENIDKLKDMAKPPEPVRNYFCVHGCSYSDFCWCEGHHHHHH", "soluble on expression in E. coli": "soluble"}, {"sequence": "MGSDKIHHHHHHMWSHQSWQDSVYGHQTKATERLAHYAHIFNSVEGNTSFYATPAPQTVLNWHSATPDNFRFTFKLPQRITHQKQLQDCNQDLRDFFHIMAPLIEKTGIWKIQLPAHFGPEQLPVLARFLDHVPQGLTYGVEVRHFAFFAKGDAERTLNRLLIDKKVNRIIMDSRPVFALPPFNETIIDAHKKKPRVPVHPIATANNPVVRFIGQADGTLALLTQLGTTALPKDNDAFFTHWLKQLTLWLNEGREPYLFIHTPDNQTAPELAARLYRKLQLHIAEHIQLADIKLLEKKAEEKSAQMGLDW", "soluble on expression in E. coli": "not soluble"}, {"sequence": "MGSDKIHHHHHHMCQRAIANIDISKEYDESMGSNDVHYQSFARMADFFGRDMQAHRHDQFFQMHFLDTGQIELQLDDHRYSVQAPLFVLTPPSVPHAFITESDSDGHVLTVREELVWPLLEVLYPGTREAFGLPGICLSLADKPNELAALKHYWQLIERESTEQLAGCEHTLVLLAQAVFTLLLRNAKLDDHAATGMRGELKLFQRFTLLIDNHFHQHWTVPDYACELHITESRLTDICRRFANRPPKRLIFDRQLREAKRLLLFSDNAVNEIAWQLGFKDPAYFARFFNRLAGCSPSQFRQREVPSFLN", "soluble on expression in E. coli": "not soluble"}]}]}
